Reference: the supplement of paper PMC9170038

System: MS2 coat protein
Experiment: apparent KD of MS2 coat protein; designed switch direction (-1 OFF switch, 1 ON switch): -1; higher = weaker reporter binding
How it was run: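 The apparent KD reported per design is the median over clusters of curve fits to normalised cluster fluorescence. The RNA switches were transcribed on Illumina chips by stalled E. coli RNA polymerase. SNAP-549-labelled MS2 coat protein was titrated from 0.7 or 1.5 nM, doubling up to 3 µM, in Tris-HCl pH 7.5 buffer containing KCl, MgCl2, BSA, DTT, tRNA and Tween-20, with no input, 200 uM small-molecule ligand, or an oligonucleotide input.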

[1] = Eterna round: R95, input ligand: FMN 200 uM
[2] = Eterna round: R95, input ligand: microRNA oligo, concentration not stated
[3] = Eterna round: R95, input ligand: none
[4] = input ligand: microRNA oligo, concentration not stated

Sequence | apparent KD of MS2 coat protein [2] [nM] | apparent KD of MS2 coat protein (input ligand: FMN 200 uM) [nM] | apparent KD of MS2 coat protein (input ligand: none) [nM] | other results
AAAACUGCCCAUAACCGCAAGCUUUUUGCUUGUCUUACCACAUGAGGAUCACCCAUGUGACAUGGGCUCCUUAUAAA [Arixeerat] (puzzle: Sensor v3, turn-off variant 2) | 8.53 | – | – | apparent KD of MS2 coat protein [1]: 14.1 nM; apparent KD of MS2 coat protein [3]: 12 nM
CUUUUGUGAGGAUAUCAGGUGUGCUAGCGUACUGGUACAUCUGAGAAGGCACAUGAGGAUCACCCAUGUUUCUA [Mat - Exclusion 4 - Mod of JL - D38] (puzzle: Exclusion 4) | 64 | – | – | –
AUAAUGUAAGGAUAUCAGUCGACUAGCUUCGGCUAGUCGACUGAGAAGGUACAUGAGGAUCACCCAUGUGGUUC [E4/11-A1] (Eterna round: R97, puzzle: Exclusion 4) | – | 118 | 985 | –
ACAUGAGGAUCACCCAUGUGAAACCAAUGGCUGACUUUGAGCUAGGAUAUUCGUGCAUAUCAAACGAAGAAGGAGCAUUACUGG [Deportation 97 - Jieux - Exclusion NG 3] (Eterna round: R96, puzzle: Exclusion NG 3) | – | 36.9 | 34.8 | apparent KD of MS2 coat protein [4]: 31.5 nM
GUUUGACAUGAGGAUCACCCAUGUAAGGAUAUACGAGUAGAUACUAGAUAGUUAGUAUGUAGAAGGUACGUGUU [EX1 #64] (Eterna round: R97, puzzle: Exclusion 1) | – | 34.6 | 43.5 | –
CAGCUGAAAGUGAGGAUAUCGACUGCUUCGGCAGUCGAGAAGGCACAUGAGGAUCACCCAUGUCUCAACAGCUG [BmEx4/1-A4] (Eterna round: R97, puzzle: Brourd's mod of Exclusion 4) | – | 70.3 | 20.7 | –
GAAAACGAUGAGGAUAUAUGAUAUCAAAGCAUCAUAGAAGGCAUCACAUGAGGAUCACCCAUGUGAUCUUCUUG [Mat - Exclusion 6 - JL Mod - D31] (Eterna round: R97, puzzle: Exclusion 6) | – | 164 | 26.6 | –
CCCUGACAUGAGGAUCACCCAUGUUAGGAUAUAACAUUUGACACUACAGUGUGAAGUGUUAGAAGGGAUAUGGG [-27.9, -26.2 kcal, A 31%] (Eterna round: R97, puzzle: Exclusion 1) | – | 32.4 | 28.7 | –
GGUGCGUAUGUGAGGAUAUGCUGGUCCUUGGUUCAGCAGAAGGCACAUGAGGAUCACCCAUGUGGUGUCGUACC [salish99_Bmod_Ex4_025] (puzzle: Brourd's mod of Exclusion 4) | 188 | – | – | –
GACUAGUGAGGAUAUAUUUGCAGUGUACCUCGGGUGAUCGCACUUGAGGAUCACCCAAGUAGAAGGCGCGAGGG [EX2 #25] (Eterna round: R97, puzzle: Exclusion 2) | – | 47.7 | 355 | –
UGAGGACAUGAGGAUCACCCAUGUAAGGAUAUGCGGAGAGUUUGGAGAGGUUGAGGAGGCAGAAGGUACAGGAU [JR_Exclu1_Sub047] (puzzle: Exclusion 1) | 49.2 | – | – | –
AAAAUGGUCUAGGAUAUGACAAAUCUGAGCACGUCAGAAGGAGACACAUGAGGAUCACCCAUGUGGGUGCGAAA [Erteedza] (Eterna round: R96, puzzle: Exclusion 6) | – | – | – | apparent KD of MS2 coat protein [4]: 29.3 nM
CAAAACUGAGGAUAUACAUGAGGAUCACCCAUGUCCAAGGUCCUGGGCGGAUGCUGCUGUAGAAGGCGGAAAGA [Diatsobi] (puzzle: Exclusion 3) | 21.8 | – | – | –
GCCCAGUUAGGAUAUACAUGUCACGUCCUAACGGUCGAAGGACAUGAGGAUCACCCAUGUAGAAGGGACCGGCA [Onraonbe] (Eterna round: R97, puzzle: Exclusion 2) | – | 17.7 | 21.2 | –
UAUAUGUGAGGAUAUCCUUUAUUAAUUAUUAUAUUAUAUAUGGAGAAGGCACAUGAGGAUCACCCAUGUUAUAU [lam1] (Eterna round: R97, puzzle: Exclusion 4) | – | 72.8 | 42.1 | –
ACGCGUGGCUAGGAUAUGCAGAAAUCUAGCCAGGCAGAAGGAGCCACAUGAGGAUCACCCAUGUGGUGAUCCUC [eternacac ex6r4 sub1] (Eterna round: R97, puzzle: Exclusion 6) | – | 10.8 | 9.98 | –
GCAUUGAGUGUGAGGAUAUGCUGGUCAUAAGAUCAGCAGAAGGCACAUGAGGAUCACCCAUGUGAAAACAAUGC [Mat - Exclusion 4 - JL Mod - D66] (puzzle: Brourd's mod of Exclusion 4) | 14.7 | – | – | apparent KD of MS2 coat protein [1]: 93.1 nM; apparent KD of MS2 coat protein [3]: 19.2 nM
CUGUUUUUCGCAGGAUAUGCUCCUCCAUUAUUUGCAGAAGGGCGUUAAACAUGAGGAUCACCCAUGUAUGGUAAUGACUAUUGC [JR_ExcNG1_Sub066] (Eterna round: R96, puzzle: Exclusion NG 1) | – | 27.4 | 19.6 | apparent KD of MS2 coat protein [4]: 12.6 nM
CGUGUCUGAUAGGAUAUGACUGUUCAUAGAUGGUUAGAAGGAUCGACAUGAGGAUCACCCAUGUAGGGCUAGCG [Eternabot (L1) Solution 65] (Eterna round: R97, puzzle: Exclusion 6) | – | 104 | 219 | –
GUAAAGUGAGGAUAUGGUGAGUAGUGCCUGAGCGCUGCUCACCAGAAGGCACAUGAGGAUCACCCAUGUAUAGC [Mat - Exclusion 4 - Mod of JL - D17] (puzzle: Exclusion 4) | 14 | – | – | –
